Experimental data reported in patent publication US5914109.

Key:
[1] = biological target: gp120 of HIVMN (HIV-1 strain MN) (UniProt P05877)
[2] = biological target: gp120 of HTLV-IIIB (HIV-1 isolate IIIB)
[3] = biological target: gp120 of HIVMN (HIV-1 strain MN) (UniProt P05877); remark: listed apart in the source
[4] = biological target: gp120 of HTLV-IIIB (HIV-1 isolate IIIB); remark: listed apart in the source
[5] = biological target: 20-mer V3 peptide of HIVMN (American Bio-Technologies) (HIV-1 strain MN); assay: Friguet ELISA method, V3 MN peptide
[6] = biological target: recombinant gp120IIIB (baculovirus, Repligen) (HIV-1 isolate IIIB) (UniProt P04578); assay: Friguet method; reference: V3IIIB peptide
[7] = biological target: recombinant gp120 protein of HIVSF2 (produced in CHO cells) (HIV-1 isolate SF-2) (UniProt P03378); assay: Friguet method; reference: V3SF-2 peptide
[8] = biological target: 20-mer V3 peptide of HIVSF2 (HIV-1 isolate SF-2); assay: ELISA on V3 peptide coated plates, mAb at 10 µg/ml
[9] = biological target: 22-mer V3 peptide of HXB2 (HIV-1 HXB2 (IIIB)); assay: ELISA on V3 peptide coated plates, mAb at 10 µg/ml
[10] = biological target: 23-mer peptide of the gp120 V3 loop of the MN strain of HIV-1 (HIV-1 strain MN); assay: ELISA on V3 peptide coated plates, mAb at 10 µg/ml
[11] = biological target: V3-CDC4 peptide (HIV-1 isolate CDC4); assay: ELISA on V3 peptide coated plates, mAb at 10 µg/ml
[12] = biological target: V3-NY5 peptide (HIV-1 isolate NY5); assay: ELISA on V3 peptide coated plates, mAb at 10 µg/ml
[13] = biological target: V3-RF peptide (HIV-1 isolate RF); assay: ELISA on V3 peptide coated plates, mAb at 10 µg/ml
[14] = biological target: V3-SC peptide (HIV-1 isolate SC); assay: ELISA on V3 peptide coated plates, mAb at 10 µg/ml
[15] = biological target: V3-WM52 peptide (HIV-1 isolate WM52); assay: ELISA on V3 peptide coated plates, mAb at 10 µg/ml
[16] = biological target: 20-mer V3 peptide of HIVMN (American Bio-Technologies) (HIV-1 strain MN); assay: competition ELISA in solution at equilibrium (Friguet method)
[17] = biological target: 20-mer V3 peptide of HIVSF2 (HIV-1 isolate SF-2); assay: as above
[18] = biological target: 22-mer V3 peptide of HXB2 (HIV-1 HXB2 (IIIB)); assay: as above
[19] = biological target: recombinant gp120 protein of HIVSF2 (produced in CHO cells) (HIV-1 isolate SF-2) (UniProt P03378); assay: Friguet method, ligand in solution at equilibrium; rgp120 SF-2
[20] = biological target: 20-mer V3 peptide of HIVMN (American Bio-Technologies) (HIV-1 strain MN); assay: Friguet method, ligand in solution at equilibrium; V3 peptide of MN
[21] = biological target: 22-mer V3 peptide of HXB2 (HIV-1 HXB2 (IIIB)); assay: Friguet method, ligand in solution at equilibrium; V3 peptide of HXB2
[22] = biological target: 20-mer V3 peptide of HIVSF2 (HIV-1 isolate SF-2); assay: Friguet method, ligand in solution at equilibrium; V3 peptide of SF-2
[23] = biological target: recombinant gp120IIIB (baculovirus, Repligen) (HIV-1 isolate IIIB) (UniProt P04578); assay: Friguet method, ligand in solution at equilibrium; rgp120 IIIB (row HXB2)
[24] = biological target: 22-mer V3 peptide of HXB2 (HIV-1 HXB2 (IIIB)); assay: competition ELISA in solution (Friguet method); mAb after the fourth cloning
[25] = biological target: 22-mer V3 peptide of HXB2 (HIV-1 HXB2 (IIIB)); assay: competition ELISA in solution (Friguet method); mAb after the second cloning

Substance: human mAb 447-D (antibody)
- 50% neutralization, CEM-SS syncytium-forming assay, IgG concentration [1]: 0.05 µg/mL
- 90% neutralization, CEM-SS syncytium-forming assay, IgG concentration [1]: 0.92 µg/mL
- 50% neutralization, CEM-SS syncytium-forming assay, IgG concentration [2]: 1.8 µg/mL
- 90% neutralization, CEM-SS syncytium-forming assay, IgG concentration [2]: > 10 µg/mL
- neutralization dose 50%, according to Nara et al. [3]: 0.052 µg/mL
- neutralization dose 90%, according to Nara et al. [3]: 0.9 µg/mL
- neutralization dose 50%, according to Nara et al. [4]: 1.8 µg/mL
- percent neutralization at the maximum concentration of 10 µg/ml [4]: 71%
- Kd [5]: 560 nM
- fold stronger binding than to the V3IIIB peptide [6]: 6 fold
- fold stronger binding than to the V3SF-2 peptide [7]: 90 fold
- minimum antigen concentration giving positive results (µg/ml of V3 peptide used to coat) [8]: 0.01
- minimum antigen concentration giving positive results (µg/ml of V3 peptide used to coat) [9]: 0.2
- minimum antigen concentration giving positive results (µg/ml of V3 peptide used to coat) [10]: 0.01
- minimum antigen concentration giving positive results (µg/ml of V3 peptide used to coat) [11]: 0.1
- minimum antigen concentration giving positive results (µg/ml of V3 peptide used to coat) [12]: 0.1
- minimum antigen concentration giving positive results (µg/ml of V3 peptide used to coat) [13]: 0.4
- minimum antigen concentration giving positive results (µg/ml of V3 peptide used to coat) [14]: 0.01
- minimum antigen concentration giving positive results (µg/ml of V3 peptide used to coat) [15]: 0.2
- Kd [16]: 560 nM
- Kd [17]: 900 nM
- Kd [18]: 24000 nM
- Kd [19]: 10 nM
- Kd [20]: 560 nM
- Kd [21]: 24000 nM
- Kd [22]: 900 nM
- Kd [23]: 3900 nM
- Kd [24]: 16000 nM
- Kd [25]: 64000 nM
